Results on two molecules are retold here after patent US20070117966A1 (UNIVERSITY OF ROCHESTER, published 2007).

Like-named read-outs stand apart in the source and are kept apart here. No end group written: not given here.

Assay [1] has as its target T1, purified αvβ3 integrin (human, UniProt P06756 31-1048; P05106 27-788, limits assumed).
For assay [2], the target named is αIIbβ3 integrin on K562-αIIbβ3 cells (UniProt P08514 32-1039; P05106 27-788). The assay is described as follows: cell-based or functional assay.
Assay [3] deals with αvβ3 integrin on K562-αvβ3 cells (human, UniProt P06756 31-1048; P05106 27-788). The assay is described as follows: cell-based or functional assay.
αvβ3 integrin on K562-αvβ3 cells, sequence (P06756 31-1048, chain 1 of 2): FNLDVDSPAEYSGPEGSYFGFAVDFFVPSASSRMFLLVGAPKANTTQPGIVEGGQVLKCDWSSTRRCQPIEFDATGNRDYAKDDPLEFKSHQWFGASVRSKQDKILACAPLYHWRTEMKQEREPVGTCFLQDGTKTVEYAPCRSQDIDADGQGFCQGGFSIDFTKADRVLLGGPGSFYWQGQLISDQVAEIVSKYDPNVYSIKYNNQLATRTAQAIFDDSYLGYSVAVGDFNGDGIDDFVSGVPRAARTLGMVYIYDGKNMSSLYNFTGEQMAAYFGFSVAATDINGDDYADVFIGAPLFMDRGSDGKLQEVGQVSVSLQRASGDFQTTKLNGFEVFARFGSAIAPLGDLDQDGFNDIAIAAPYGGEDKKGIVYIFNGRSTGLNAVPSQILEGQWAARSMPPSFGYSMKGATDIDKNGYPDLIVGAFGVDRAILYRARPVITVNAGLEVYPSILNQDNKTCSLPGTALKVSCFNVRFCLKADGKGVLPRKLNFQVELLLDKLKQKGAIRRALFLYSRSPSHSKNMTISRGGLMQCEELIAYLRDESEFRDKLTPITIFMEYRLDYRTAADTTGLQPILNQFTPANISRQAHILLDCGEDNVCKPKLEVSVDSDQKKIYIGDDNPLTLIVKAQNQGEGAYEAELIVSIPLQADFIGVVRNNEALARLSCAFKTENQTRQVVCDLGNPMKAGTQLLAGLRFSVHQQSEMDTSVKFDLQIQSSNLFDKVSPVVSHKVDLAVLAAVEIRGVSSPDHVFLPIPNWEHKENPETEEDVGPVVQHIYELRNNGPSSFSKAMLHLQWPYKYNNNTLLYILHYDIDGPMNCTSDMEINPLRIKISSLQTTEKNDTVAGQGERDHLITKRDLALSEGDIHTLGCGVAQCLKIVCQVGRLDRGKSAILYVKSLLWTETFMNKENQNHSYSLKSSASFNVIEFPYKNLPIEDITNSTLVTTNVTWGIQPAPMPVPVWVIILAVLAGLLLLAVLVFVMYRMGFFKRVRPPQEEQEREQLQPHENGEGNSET
αvβ3 integrin on K562-αvβ3 cells, sequence (P05106 27-788, chain 2 of 2): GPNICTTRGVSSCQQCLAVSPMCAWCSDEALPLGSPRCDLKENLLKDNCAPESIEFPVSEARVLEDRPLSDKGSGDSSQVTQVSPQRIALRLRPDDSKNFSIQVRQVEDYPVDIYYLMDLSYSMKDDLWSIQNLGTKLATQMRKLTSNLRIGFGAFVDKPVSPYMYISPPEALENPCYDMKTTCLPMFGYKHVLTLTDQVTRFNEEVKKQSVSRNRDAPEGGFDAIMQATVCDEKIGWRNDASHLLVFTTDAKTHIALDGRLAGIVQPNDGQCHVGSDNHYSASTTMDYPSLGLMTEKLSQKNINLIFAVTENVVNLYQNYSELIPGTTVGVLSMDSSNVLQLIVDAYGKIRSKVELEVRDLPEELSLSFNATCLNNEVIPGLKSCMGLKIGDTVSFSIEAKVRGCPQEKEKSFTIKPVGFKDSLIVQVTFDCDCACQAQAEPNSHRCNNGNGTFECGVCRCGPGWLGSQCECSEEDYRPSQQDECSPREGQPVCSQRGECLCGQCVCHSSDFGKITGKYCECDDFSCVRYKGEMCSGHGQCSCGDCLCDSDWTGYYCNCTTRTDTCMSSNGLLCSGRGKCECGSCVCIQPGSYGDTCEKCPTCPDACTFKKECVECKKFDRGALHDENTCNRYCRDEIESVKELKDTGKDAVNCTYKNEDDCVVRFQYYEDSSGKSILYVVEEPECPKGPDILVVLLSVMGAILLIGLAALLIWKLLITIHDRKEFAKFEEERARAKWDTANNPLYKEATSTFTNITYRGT
The target in assay [4] is T1, purified αvβ3 integrin. Kind of assay: competition ELISA on αvβ3 coated wells; competitor: biotinylated FNfn10-3JCLI4 at 800 pM; no inhibition at the highest concentration. In general terms: ELISA stands for enzyme-linked immunosorbent assay.

T1 sequence (P06756 31-1048 limits assumed, form in doubt, chain 1 of 2): as the sequence (P06756 31-1048, chain 1 of 2) above
T1 sequence (P05106 27-788 limits assumed, form in doubt, chain 2 of 2): as the sequence (P05106 27-788, chain 2 of 2) above

B1: echistatin (ligand)
chain: QCESGPCCRNCKFLKEGTICKRARGDDMDDYCNGKTCDCPRNPHKGPAT
modifications: ends and bridges not checked; cysteine pairing not given here
As a reminder, the IC50 is the point on the concentration scale where inhibition reaches its midpoint. Low values mean greater potency in that assay, high ones weaker potency in that assay. In the assay with purified αvβ3 integrin [1], B1 yielded a concentration for half-maximal inhibition (IC50) of 0.93 nM. Further, the “inhibition of adhesion of K562-αIIbβ3 cells to fibronectin, IC50” value in assay [2] amounted to 10.2 nM. In assay [3], the “inhibition of adhesion of K562-αvβ3 cells to vitronectin, IC50” value amounted to 5.9 nM.

B2: GRGDSPK peptide (peptide)
peptide: GRGDSPK
In the assay with purified αvβ3 integrin [4], B2 had an IC50 greater than 80 nM.
